Experimental data as given in patent publication US20250129167A1.

Biological target: PD-L1 on CHO-PD-L1 cells (Promega blockade system) (UniProt Q9NZQ7)
Sequence (Q9NZQ7 19-290 limits assumed): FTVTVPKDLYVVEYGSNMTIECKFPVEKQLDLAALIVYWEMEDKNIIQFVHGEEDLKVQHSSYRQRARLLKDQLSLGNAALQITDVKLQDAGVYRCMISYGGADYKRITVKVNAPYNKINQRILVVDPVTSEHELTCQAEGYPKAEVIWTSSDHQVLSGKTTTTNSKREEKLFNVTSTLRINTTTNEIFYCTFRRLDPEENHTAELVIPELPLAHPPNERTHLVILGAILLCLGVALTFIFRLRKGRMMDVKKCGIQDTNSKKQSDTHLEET

EC50 (read off the curve); luciferase fold induction, Promega CHO-PD-L1 / PD-1 Jurkat assay: 100 pM
Substance: Tecentriq (antibody)
